Assay: soluble on expression in E. coli; label from the status in PepcDB or PDB records

Row | Sequence | soluble on expression in E. coli
1 | GSHMRKIQRYVRKDGKCNVHHGNVREKRAETLVFSTHAVISMRDGKLCLMFRVGDLRNSHIVEASIRAKLIKSKQTSEGEFIPLNQTDINVGYYTGDDRLFLVSPLIISHEINQQSPFWEISKAQLPKEELEIVVILEGMVEATGMTCQARSSYITSEILWGYRFTPVLTLEDGFYEVDYNSFHETYETSTPSLSAKELAELANRAEV | soluble
2 | MSLRTTDIRVRDLYFEYEDFRYRTPIKFGGVALGRVTLLNVRMTVESAAGKAATGFGSMPLGNVWAYPSRLLTYDQTLGAMRFLASRIADGYRLCGLSGHPIDITHQLEPELLLAGNDFTAIHRPSDPVPKLAVLVVASAFDAALHDAYGKLHGLNCFRTYTREFLPDDLGHYLGAEFNGLHLDDFITHEPKPSMPLYHLVGALDPITPEDVTQPVGDGLPEHLAEWITRDGLTHLKIKLNGDDLGWDVERCVRINAVAEDAQRARGVTTWWYSLDFNERCQNVGYLIEFLQKLRERTPAGYDRVQYVEQPTARDLNAHPENKMHAAAKLKPVVIDESLLDLESLKLSMEMGYTGVAFKACKGQTQTLLLAAAAQKYGLFRCVQDLTCVGASLIHSAGLAAHIPGVAAIESNGRQYCPTANVAWDAKFPGVFTITGGSMNTALLNGVGLGAVSEGHHHHHH | soluble
3 | MVLTEDFGYPLSRIKLEYEVTFGREKKRADIVIFDKQQTDSPYIIIEVKKPKLKDGKEQLKSYCNATGAPIGVWSNGKSISYYHRKDPNYFEDISNIPRADQKLSDILSERWTIADLIEKDKLISERKSLKDLILEMEDEVLAGAGVDVFEEVFKLIFTKLFDEMESGRNNERNLEFRNYGDTETELKERIQNLFDKARDKWEGVFSPDAKIQLTPSHLSVCVASLQDVKLFNSNLDVVDEAFEYLINKSSKGEKGQYFTPRYVIDMCVKMLNPTANEKMIDTASGSCGFPVHTIFHVWENILKEKGLERSHLFTLEQKPAECTDYVNDNVFAIDFDEKAVRVARTLNLIAGDGQTNVLHLNTLDYERWEQNLDSEDWQDTYFEGWKKLKKLRTRKDSYRDFTFDIVMANPPFAGEVKESRILAKYDMSRSMSLEKVKIAPKGATIVEGEPTFSEALANTGETIYQMSDGTYRKTKLKQAGNMSRDILFVERNLDFLKPGGRMAIVLPQGRFNNSSDKALREYIADRCRILAVVGLHGNVFKPHTGTKTSVLFVQKWDEELCPRVEDYNIFFATMQEPSKDNSGDKIYRSTTNEEGENVPLLDTHGHLIVKHDLFNHDGLTEDGIAEAFAEFAKKERLSFFADAPLTK | not soluble
4 | MSQSKGKKRNPGLKIPKEAFEQPQTSSTPPRDLDSKACISIGNQNFEVKADDLEPIMELGRGAYGVVEKMRHVPSGQIMAVKRIRATVNSQEQKRLLMDLDISMRTVDCPFTVTFYGALFREGDVWICMELMDTSLDKFYKQVIDKGQTIPEDILGKIAVSIVKALEHLHSKLSVIHRDVKPSNVLINALGQVKMCDFGISGYLVDSVAKTIDAGCKPYMAPERINPELNQKGYSVKSDIWSLGITMIELAILRFPYDSWGTPFQQLKQVVEEPSPQLPADKFSAEFVDFTSQCLKKNSKERPTYPELMQHPFFTLHESKGTDVASFVKLILGDLEHHHHHH | soluble
5 | MSTELIAAVEAADSAEGLVRAVAALSAARTDAAIPTLISVLAFNNPGAAVVAVDGLIQLGSPAAQAILNNLDDYNYGARAWALRALAGIGEPAALPLLLSAAREDFSLSVRRAATYGLGRVRWADLSESDRLAQQQQCYETLKLCLQYDPEWVVRYAAAAALETLAPAATQLQSAIAETLNRQAHSDEERAVQARSRLAERRLAGGVLEHHHHHH | soluble
6 | MAAHSSAGLLDYVFPTIVSEYYNQAPTKEGYRFASEEPNGSKREEMGVIMNPGTPDEQLVVMGMYSSYDEKTDTETVTMYTADKDGYKARYQIKNRKLSPGALKSAAGLEHHHHHH | not soluble
7 | MGSDKIHHHHHHMQDSMLSGLFGALTTEHRLNNIANNLANVNTNGYKRDVLAFKDTMALFAHDEIMEPMANVRSKKLFPEPLHVARPRIAVARTDFSQGSFHYTSDPLDLAISGNGFFKVRTPEGEFYTRNGHFRQTSDGQLVTMQGWPVLSEGGDINLPQGKNLQVASDGRIAVDGVDVGQLQVVTVSDLEGLEKLGGNLYRLREGSTAGEVPVGPDVIVSQGYIETSNVEVVNEMVNMIETQRQFEAYQKVMQTSDTVDRDAITKIGRGR | not soluble
8 | AWKGEVLANNEAGQVTSIIYNPGDVITIVAAGWASYGPTQKWGPQGDREHPDQGLICHDAFCGALVMKIGNSGTIPVNTGLFRWVAPNNVQGAITLIYNDVPGTYGNNSGSFSVNIGKDQS | soluble
9 | AHHHHHHGSKILAIAPNISRPYLGPAAVVHNTLKGFIKINKELEREDIEITFLSINDKIKSKKLTDNINIIGTKRFPPVTFTGEIQALFVSRKLEKPDLVHSHDLYEIFPWILKKIPTIFTLHGIVWKEKMFTKSLYAKLWYYLYEKRLRAYHKKFTKFVAISP | not soluble
10 | MASQQQTVREWSGINTFAPATQTKLLELLGNLKQEDVNSLTILVMGKGGVGKSSTVNSIIGERVVSISPFQSEGPRPVMVSRSRAGFTLNIIDTPGLIEGGYINDMALNIIKSFLLDKTIDVLLYVDRLDAYRVDNLDKLVAKAITDSFGKGIWNKAIVALTHAQFSPPDGLPYDEFFSKRSEALLQVVRSGASLKKDAQASDIPVVLIENSGRCNKNDSDEKVLPNGIAWIPHLVQTITEVALNKSESIFVDKNLIDKLAAADHHHHHH | soluble
11 | MLENYARFITAASAARNPSPIRTMTDILSRGPKSMISLAGGLPNPNMFPFKTAVITVENGKTIQFGEEMMKRALQYSPSAGIPELLSWLKQLQIKLHNPPTIHYPPSQGQMDLCVTSGSQQGLCKVFEMIINPGDNVLLDEPAYSGTLQSLHPLGCNIINVASDESGIVPDSLRDILSRWKPEDAKNPQKNTPKFLYTVPNGNNPTGNSLTSERKKEIYELARKYDFLIIEDDPYYFLQFNKFRVPTFLSMDVDGRVIRADSFSKIISSGLRIGFLTGPKPLIERVILHIQVSTLHPSTFNQLMISQLLHEWGEEGFMAHVDRVIDFYSNQKDAILAAADKWLTGLAEWHVPAAGMFLWIKVKGINDVKELIEEKAVKMGVLMLPGNAFYVDSSAPSPYLRASFSSASPEQMDVAFQVLAQLIKESL | soluble
12 | VGYGDITQVETSGASSKTSRQDKLEYDGVRASHTMAQTDAGRMEKYKSFINNVAKKHVVDPAVIAAIISRESRAGNVIFNTTPPGWGDNYNGFGLMQVDKRYHEPRGAWNSEEHIDQATGILVNFIQLIQKKFPSWSTEQQLKGAIAAYNTGDGRVESYESVDSRTTGKDYSNDVVARAQWYKKNGF | soluble
13 | MAETFKIRKLEISDKRKGFIELLGQLTVTGSVTDEEFDRRFEEIRSYGDDHVICVIEEETSGKIAATGSVMIEKKFLRNCGKAGHIEDVVVDSRFRGKQLGKKVVEFLMDHCKSMGCYKVILDCSVENKVFYEKCGMSNKSIQMSKYFD | soluble
14 | MGSDKIHHHHHHMQRARCYLLGERAVVLELEPPMSLESQQRIWGLAERLNHHEEVLEVIPGMNNLTVLLAHPQQVALDAIERLQRWWEESESLVFDPRDIDIPVIYGGEAGPDLAEVAAHSGLTVSQVVEAHAAAQYVVYFLGFQPGFAYLGGLNEKLHMPRRAEPRLRVPEGSVGIGGAQTGIYPLATPGGWQLIGRTSLTLFNPQTMPPTLLRPGDNVRFLPQKEGVC | not soluble
15 | GAMHTFYGTRLLNPKPVDFALEGPQGPVRLSQFQDKVVLLFFGFTRCPDVCPTTLLALKRAYEKLPPKAQERVQVIFVSVDPERDPPEVADRYAKAFHPSFLGLSGSPEAVREAAQTFGVFYQKSQYRGPGEYLVDHTATTFVVKEGRLVLLYSPDKAEATDRVVADLQALL | soluble
16 | MGWCITVVHNTKWKAPPDTHIKCNYDAGFNVQNLDSTARWIIRNHDGIAQHWGSLQLDNTSTPLEAETKALLAALQQTWIRGYLRVIMEGDCETLTNLVSGSSSHNHLANLLDDIRIWAKKFSNVQFSFVRRGGNKVAHELAKLGCNSTCFYSDSCTLPIWLHQHYCNDFG | soluble
17 | MIKLSPIDKYKQDLTRDDFLFDAAQENAVIHLQRLYDDLQSKPLAVSGFKKVLNRWKKVYKKQEQEPIKGLYFWGGVGRGKTYLVDTFFESLPFNNKMRVHFHRFMHRVHQELKSLSGQSDPLKIIAKKFADETQIICFDEFFVSDITDAMILGTLFEELFAHNVTLVATSNIIPDELYRNGLQRERFLPAIKLINKHTLIVNVDSGVDYRLRTLEQAEIFHYPLDAQADENLKHYFKQLSTDEGKSGQSIEIHNRPLKTVLVSDGVVYFDFSVLCESARSQGDYMEISQLYHTVLMANVKEMGPDSDDTTRRFIALVDEFYERNVKLIMSAELPLDDLYSGGRLAFEFKRCLSRLQEMQSHDYLASEHLPLEHHHHHH | not soluble
18 | MGRPRYLAYTRQIAMKSWRKAVVGTQATVGDAIAAIESGSIQIALVLDDQNRLLGVVTDGDVRRGLLRGIPLTGLATDIMNRVPVSAPATLSRDDRLHLMRQKSIKQLPLVDEGGHLVVVETLDELLEPRHYANPVLIMAGGLGERLGALTRDVPKPMLNVGGRPLLETIVRNVVQQGFRNIYISVNYKAETIKDYFADGAAFGANIQYVHETERLGTAGALGLFPAPPDLPMIVTNGDILTTINYGALLDFHNGTPAEATMAVREHKVHVPYGVVSTSDGFLQAIREKPTESWFVSAGIYVIGSSVFGHVAPGVSIDMPTVLERVIAGKGRVAVYPIREYWLDIGRLEDFEQAHAEFHEVFPLEHHHHHH | soluble
19 | MSLYTFKELKRATKQDTVSLPKLKVALLGDTATQLLATAIKGEGILRNYNIELWEAEYNQVERQIMDPTSDYYQFEPDYTIIFHSTHKLLEKHSLVNSDLQNKLADDRLDFVRLLCEQGIGRVIYYNYPEIEDTIWGSYATKVQSSFTYQLTKLNYELMNISQAYPNFFICNLAGISAKYGRNFMFDSSVYVNTEIILSLDALPIISSRTIDIIAAIQGKFKKCLILDLDNTIWGGVVGDDGWENIQVGHGLGIGKAFTEFQEWVKKLKNRGIIIAVCSKNNEGKAKEPFERNPEMVLKLDDIAVFVANWENKADNIRTIQRTLNIGFDSMVFLDDNPFERNMVREHVPGVTVPELPEDPGDYLEYLYTLNLFETASFSEDDKDRTKQYQIEAKRVSLQQSFTNEAEFLKSLDMVSEVKGFDKFNTPRVAQLSQRSNQFNLRTVRYTEAEIAAIESDLHYATFSFTLADRFGDNGLICVIILEKQDTETLFINTWFMSCRVLKRGMENFTLNTLVDYARSNGFKRFIGEYLPSAKNQMVEEHYPHLGFSKMEGGDNAARYVLDVEEGHHHHHH | not soluble
20 | GPGSMPPKKGKKLKKKVKLQVPPQYEEQISKEPVSDPPTSQQSITSLPISVVEAALAVEESPEEDIVTFGAEALNRLLSMRHPQQIAADLTRSLSSLRQRLAQLEMEWLGFESSAVGSTYACRARDQKDKLEHEVRKTEKMTRHLILLGRVLDRIFELRTSVFDTERTAMEAEVEELTKRVEKNDEEIRSCYINRISLLHRYWVWRTLQELGDMTVGRTFAEELARGPRYRSIAIQNRILSDTLERQLEWLQRFLEKEEVFCGRVRQLERFVEEFTDMNDALEEVLTCRVCNLLFEDPVVFWPCGHSFCLQCFDSLSVAPSLFRCPLCGSMGSEGYVHNLLLSESVAKWMFKDACYADVHGALSLVRLHLSKFRRNIISSRMEQLEERLTAERGRELASDTLDDMDIVYRAY | not soluble
21 | MHTSILLLTALCAGAYAQFSANGQAAILNVHNTLRSRIAKGTYVAKGTAKPAASDMLKMKWDATVAASAQAYANKCPTGHSGAAGLGENLYWYWTSATITNIDQFGATGSAAWEKEFQDYGWSSNTLSMSLFNTGIGHATQMAWAKTNLIGCGVKNCGKDTNGFNKVTVVCQYKPQGNYLNQNIYTSGTTCSKCPSGTSCEAATGLCA | not soluble
22 | MLKEHSKKQHLRREVQEKLKNEAIVAAQTLSTAVVDHLNAKVAQAYGNQKRLDVEAKRFENNSAALAKQTEQWLFITEGLNYALKEIGDVENWSKTIENDMKIITETLRRAYEAKNPPLPPNQANPASH | not soluble

Source: the DeepSol protein solubility set
